± gives the standard deviation of the averaged measurements.
Tested on: Saccharomyces cerevisiae
Assay: protein stability index of tFT-peptide fusion (C-terminal peptide) (PSI (0-1 scale)); higher = more stable (slower turnover)
Details: temperature: 30 C
Procedure: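 MPS profiling in S. cerevisiae of the yeast C-terminome library: the last 12 aa of each annotated ORF are fused to the C-terminus of a sfGFP-mCherry timer, after a GGGS linker. Cells are FACS-sorted into 8 mCherry/sfGFP bins and deep-sequenced. PSI runs from 0 (unstable) to 1 (stable); wild type and das1Δ backgrounds, two technical replicates each.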

[1] = genetic background: das1 deletion

**Q.** What does the source list for LIYLNETLGTRL [IRC19 C-terminal 12 aa]?
**A.** protein stability index [1]: 0.705 ± 0.015; protein stability index (genetic background: wild type): 0.671 ± 0.003

**Q.** Which results are given for SKKNVLYQKKNN [RTT107 C-terminal 12 aa]?
**A.** protein stability index [1]: 0.69 ± 0.0099; protein stability index (genetic background: wild type): 0.286 ± 0.014

**Q.** How did the protein stability index [1] turn out when NILKVEKRAVLE [PMT1 C-terminal 12 aa] was run?
**A.** 0.684 ± 0.013

**Q.** And the protein stability index (genetic background: wild type)?
**A.** 0.659 ± 0.02

**Q.** FRGKLFLDSITD [MLC2 C-terminal 12 aa] was tested. Which protein stability index [1] did it give?
**A.** 0.724 ± 0.0085

**Q.** What about the protein stability index (genetic background: wild type) of the same sequence?
**A.** 0.73 ± 0.034

**Q.** For YLISEKIIRKHL [MET14 C-terminal 12 aa], which protein stability index [1] is on record?
**A.** 0.685 ± 0.017

**Q.** And the protein stability index (genetic background: wild type)?
**A.** 0.602 ± 0.026

**Q.** With DLVKASSTLNVS [SDL1 C-terminal 12 aa] as the sequence, how does the protein stability index [1] read?
**A.** 0.682 ± 0.0043

**Q.** And the protein stability index (genetic background: wild type)?
**A.** 0.672 ± 0.0084

**Q.** With YKTEYPEWALRR [PUS9 C-terminal 12 aa] as the sequence, how does the protein stability index [1] read?
**A.** 0.723 ± 0.01

**Q.** And the protein stability index (genetic background: wild type)?
**A.** 0.717 ± 0.053

**Q.** For LGYTDDEIYNRQ [SER2 C-terminal 12 aa], which protein stability index [1] is on record?
**A.** 0.706 ± 0.026

**Q.** And the protein stability index (genetic background: wild type)?
**A.** 0.681 ± 0.036

**Q.** How did the protein stability index [1] turn out when YEYHTEEDVMYA [YGR130C C-terminal 12 aa] was run?
**A.** 0.703 ± 0.013

**Q.** What about the protein stability index (genetic background: wild type) of the same sequence?
**A.** 0.684 ± 0.044

**Q.** For TLVGTPGYRITL [RCE1 C-terminal 12 aa], which protein stability index [1] is on record?
**A.** 0.7168 ± 0.0018

**Q.** What about the protein stability index (genetic background: wild type) of the same sequence?
**A.** 0.695 ± 0.02

**Q.** MHQYSAIIPSGT [YJL182C C-terminal 12 aa] was tested. Which protein stability index [1] did it give?
**A.** 0.642 ± 0.019

**Q.** And the protein stability index (genetic background: wild type)?
**A.** 0.603 ± 0.0061

**Q.** For GVRKEFYELKRD [PRE7 C-terminal 12 aa], which protein stability index [1] is on record?
**A.** 0.69519 ± 5.6e-05

**Q.** What about the protein stability index (genetic background: wild type) of the same sequence?
**A.** 0.693 ± 0.054

**Q.** Which protein stability index [1] does the source give for PSAYVLFYERIF [UBP5 C-terminal 12 aa] here?
**A.** 0.71 ± 0.015

**Q.** And the protein stability index (genetic background: wild type)?
**A.** 0.678 ± 0.018

**Q.** How did the protein stability index [1] turn out when LRRLTSPSRTQP [BAG7 C-terminal 12 aa] was run?
**A.** 0.71894 ± 0.00039

**Q.** And the protein stability index (genetic background: wild type)?
**A.** 0.705 ± 0.012

**Q.** Which results are given for QELCADSTIYHM [LIP1 C-terminal 12 aa]?
**A.** protein stability index [1]: 0.687 ± 0.017; protein stability index (genetic background: wild type): 0.734 ± 0.065

**Q.** Which results are given for YERERKLRGGKK [NOP14 C-terminal 12 aa]?
**A.** protein stability index [1]: 0.702 ± 0.027; protein stability index (genetic background: wild type): 0.692 ± 0.072

**Q.** Which results are given for GCGCNCPEMFDA [MTC5 C-terminal 12 aa]?
**A.** protein stability index [1]: 0.6906 ± 0.0026; protein stability index (genetic background: wild type): 0.695 ± 0.029

**Q.** Which results are given for RRKLKGRWFLSH [MRX14 C-terminal 12 aa]?
**A.** protein stability index [1]: 0.702 ± 0.0078; protein stability index (genetic background: wild type): 0.562 ± 0.0085

**Q.** With RALVDAIQLRGV [CGI121 C-terminal 12 aa] as the sequence, how does the protein stability index [1] read?
**A.** 0.68 ± 0.024

**Q.** What about the protein stability index (genetic background: wild type) of the same sequence?
**A.** 0.663 ± 0.0088

**Q.** Which results are given for IIQQNLKKIGII [GPA1 C-terminal 12 aa]?
**A.** protein stability index [1]: 0.696 ± 0.02; protein stability index (genetic background: wild type): 0.195 ± 0.011

**Q.** Which protein stability index [1] does the source give for “FKSTPIIYSNVI [YER006C-A C-terminal 12 aa]” here?
**A.** 0.724 ± 0.027

**Q.** What about the protein stability index (genetic background: wild type) of the same sequence?
**A.** 0.642 ± 0.0074

**Q.** How did the protein stability index [1] turn out when EDDFGPKPKFFI [SWE1 C-terminal 12 aa] was run?
**A.** 0.71 ± 0.011

**Q.** And the protein stability index (genetic background: wild type)?
**A.** 0.683 ± 0.039

**Q.** Which results are given for SYNDPALADFMP [NRE1 C-terminal 12 aa]?
**A.** protein stability index [1]: 0.7154 ± 0.007; protein stability index (genetic background: wild type): 0.744 ± 0.039

**Q.** For LMGAALAAVMLL [FIT3 C-terminal 12 aa], which protein stability index [1] is on record?
**A.** 0.6841 ± 0.0054

**Q.** What about the protein stability index (genetic background: wild type) of the same sequence?
**A.** 0.6409 ± 0.0026

**Q.** How did the protein stability index [1] turn out when VISLAAQSKYVQ [MCO6 C-terminal 12 aa] was run?
**A.** 0.693 ± 0.019

**Q.** And the protein stability index (genetic background: wild type)?
**A.** 0.697 ± 0.034

**Q.** For LYSFNQLEPLQT [GIC2 C-terminal 12 aa], which protein stability index [1] is on record?
**A.** 0.703 ± 0.0092

**Q.** And the protein stability index (genetic background: wild type)?
**A.** 0.669 ± 0.025

**Q.** What does the source list for STSGESFTETQF [ICL2 C-terminal 12 aa]?
**A.** protein stability index [1]: 0.6971 ± 0.0022; protein stability index (genetic background: wild type): 0.73 ± 0.054

**Q.** How did the protein stability index [1] turn out when KYFLRMVYPMKV [ESBP6 C-terminal 12 aa] was run?
**A.** 0.4888 ± 0.0038

**Q.** And the protein stability index (genetic background: wild type)?
**A.** 0.404 ± 0.031

**Q.** Which results are given for YSSDSSTLHSKV [FIG1 C-terminal 12 aa]?
**A.** protein stability index [1]: 0.7 ± 0.021; protein stability index (genetic background: wild type): 0.6859 ± 0.0017

**Q.** For STERAKELLESN [MRF1 C-terminal 12 aa], which protein stability index [1] is on record?
**A.** 0.666 ± 0.026

**Q.** And the protein stability index (genetic background: wild type)?
**A.** 0.69 ± 0.033

**Q.** How did the protein stability index [1] turn out when RIEMDLALTEPL [ORC6 C-terminal 12 aa] was run?
**A.** 0.691 ± 0.016

**Q.** And the protein stability index (genetic background: wild type)?
**A.** 0.685 ± 0.015

**Q.** What does the source list for “VARRITDHTCLM [YLR364C-A C-terminal 12 aa]”?
**A.** protein stability index [1]: 0.677 ± 0.0084; protein stability index (genetic background: wild type): 0.696 ± 0.031

**Q.** How did the protein stability index [1] turn out when KNVTINTRETPL [DAL81 C-terminal 12 aa] was run?
**A.** 0.694 ± 0.018

**Q.** What about the protein stability index (genetic background: wild type) of the same sequence?
**A.** 0.6712 ± 0.0061

**Q.** With SFNFDHFDHFDL [YIL054W C-terminal 12 aa] as the sequence, how does the protein stability index [1] read?
**A.** 0.733 ± 0.019

**Q.** And the protein stability index (genetic background: wild type)?
**A.** 0.743 ± 0.014

— the supplement of paper PMC10724198
